US20030204066A1

Biological target: human tumor necrosis factor-α (TNFα) (human) (UniProt P01375)
Experiment: cell-based or functional assay

human tumor necrosis factor-α (TNFα) (human), sequence (P01375 77-233): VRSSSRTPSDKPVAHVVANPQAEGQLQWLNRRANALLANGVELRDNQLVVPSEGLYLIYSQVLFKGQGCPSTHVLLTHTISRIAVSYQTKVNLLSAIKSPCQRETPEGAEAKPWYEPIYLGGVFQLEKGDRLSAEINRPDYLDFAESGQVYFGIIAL

B1: chimeric mouse/human IgG1 anti-platelet mAb (7E3) (antibody, INN chains, looked up, V domains shown)
VH: EVQLQQSGTVLARPGASVKMSCEASGYTFTNYWMHWVKQRPGQGLEWIGAIYPGNSDTSYIQKFKGKAKLTAVTSTTSVYMELSSLTNEDSAVYYCTLYDGYYVFAYWGQGTLVTVSA
VL: EIVLTQSPVTLSVTPGDSVSLSCRASRDISNNLHWFQQTSHESPRLLIKYASQSMSGIPSRFSGSGSGTDFTLSINSVETEDFGMYFCQQTNSWPYTFGGGTKLEIK
modifications: chimeric IgG1
IL-6 secreted by FS-4 fibroblasts (ng/ml) at 0.3 ng/ml TNF, 4 µg/ml antibody: 1.6 ng/mL | IL-6 secreted by FS-4 fibroblasts (ng/ml) at 1.5 ng/ml TNF, 4 µg/ml antibody: 1.96 ng/mL | IL-6 secreted by FS-4 fibroblasts (ng/ml) at 7.5 ng/ml TNF, 4 µg/ml antibody: 2.16 ng/mL
